# The supplement of paper PMC12455559
# Test: purified protein yield per well (BCA); higher = higher soluble expression
# How it was run: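 Each candidate enzyme was grown in E. coli C41(DE3) in a 2 mL autoinduction culture (100 µg/mL kanamycin; 2 h at 37 °C, then 40 h at 18 °C) and purified robotically via Ni-charged magnetic beads with SUMO protease cleavage. Purified protein yield per well was assessed using the Pierce Rapid Gold BCA kit. Readings below 25 ug (0.1 mg/mL) are beneath the detection threshold.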
row,Sequence,purified protein yield per well [µg]
1,DEIGQAPTPSNITGSGSFSTTSSTITGQSGFGGGTVYYPTASGKYPVVAMVPGFLSDWSSISWLGPRVASWGFVVVGANTNSGLDDPTSRGDQLLAALNWAVNSSPTAVRGKTDGTRRGVAGWSMGGGGTLEALAKDTSGVVKAGVPLAPWHNDKSWNQVNEPVFLIGGENDGVASPDSHAIPFYNSLGGPKSFLERAGANHFFPNSSDPTVSRAVVSFLKRHVSADNRFSPYVCGFSGSAVSDFRSNSC [ESM133],< 25
2,QIGPAPTSASLNATAGPLAVSTSTVTVATGFGGGTIYYPSTAGQYGVIAISPGFTATQSSVAWLGRRLATHGFVVITIDTNTTLDQPASRATQLIAALNYVVNSASSTVRSRVDPNRRAVAGHSMGGGGALIAAENNPSLKASLPLTPWNLSSSFTQVRVPTLIVGSDGDAVAPVAVHARPFYASLPGTTYKAYAELNLATHFTPNSTNTPIGRYGVTWMKRFVDADTRYSSFLCGADHQAYATALVFDRYSQNCPY [ESM116],< 25
3,APAHHAAPAHAAAHHHAPFAVRATVVPKTAVKAFGGGVIYTPQDTGKPVLGAVVITPGFTNTNADEKQLGELVASQGFVAFVIDTLDTGDLPDQRATEILAAADYLTGQSAVRSEVSAKDVGLIGYSFGGGGTMQAAQARPSIKAAIGLMPFDFPPASDPDAQYPAYPKLTTPTLVITGQKDDVADPADFGKPAYDSIPAGTPKQYLELKGLDHYAGEHAPVAAIRNAVTAFLKRYLDGNSAYAKFICPAPKVGGPITASYSSCPKG [ESM112],< 25
4,APAPATAAAADNPYERGPDPTEDSIEAARGPYDVAETSVSSWVVSGFGGGTVYYPRETDDGTFGAVAVAPGYTASQSSMAWLGPRLASQGFVVFTIDTLTRLDQPASRGRQLLAALDYLTERSAVRNRIDASRLGVMGHSMGGGGTLEAAADRPSLQAAVPLAPWNLDKTWGELRVPTMIIGADGDSIAPVSSHSEPFYESLPGGLDRAYLELNNADHFTPNLPDTTLAKYSLSWLKRFIDNDTRYEQFLCPLPRPGWYIEEYRGTCPHLS [TEP124],< 25
5,STPAHHAAARTAAHHHAPFAVRATVVPKTAVKAFGGGVIYTPQDTGKAVLGAVVITPGFTDTSADEKEMAELVASQGFVAFAIDTLDTGDLPDQRATEILAAADYLTGQSAVRSEVSAKDVGLIGYSFGGGGTMQAAQARPSIKAAIGLMPYDFPPADQPDAQYPAYPKLTTPTLVITGQKDDLAVPAEFGKPAYDSIPAGTPKQYLELKGLGHAAGEHVPVATIRTAVTAFLKRYLDGNSAYAKYICPAPKVGGPISASTSSCPKG [TEP196],< 25
6,YQRGPDPTRSALTADGPFSVTTYTVSRYAVTGFGGGVIYYPTGTSLTFGGIAVSPGYTADASSLAWFGRRLASHGFVVLVINTNSRFDFPDSRASQLAAALDYLVSRSPSAVRARLDTSRLAVAGHSMGGGATLRISENRPSLKAAVPLTPWHTDKTFNTAVPQLIIGAENDTVAPVSDHAIPFYQNLPSTTPKVYLELNNASHF [TEP127],< 25
7,QSNPYQRGPAPTASSLEASRGPLAISQFTVSRPSGYRAGTVYYPTNAGGTVGAIAVVPGYTAYQSDINWWGPRLASWGFVVITIDTNSTLDQPSSRSRQQLAALDQVAALSRTSSSPIYNKVDTSRMGVMGWSMGGGGSLISTENRPSLKASIPFAPWNSTSSFSSVVTPTFIIACQSDIIAPVASHADDFYDSLSRPPKMFLEIRGGSHYCANSSNNDKGLLGSKGVAWMKRYIDNDTRFTSYACSNPNTLAVSDFRTARCS [ESM104],< 25
8,QIGPDPTSSSLNATSGPFAVSTSTVAIASGFGGGTIYYPTTTGQYGVIAVSPGFTATQSSIAWLGRRLATHGFVVITIDTLTTLDQPASRATQLVAALNYVVNSATSTVRSRVDSSKRAVAGHSMGGGGALIAAQNNPGLKASLPLTPWNLSTNFSQNQVPTLIFGSDGDTVAPVAVHSRPFYASLPSSTYKAYAELNLATHFTPNSTNTPIGRYGVAWMKRFIDSDTRYSAFLCGAEHQAYATALVFDRYNQNCPY [ESM113],< 25
9,YYPTSTSDGTFGAVVVTPGFTATESSMAWLGPRLASQGFVVFTIDTLTTLDQPDSRGRQMLAALDYLTERSSARTRIDGTRLGVIGHSMGGGGTLEAAKSRPSLKAAIPLTPWNLDKTWPEVTTPTLVVGADGDTVAPVATHAKPFYSSLPSSTDRAYLELNNATHFAPN [TEP120],< 25
10,DSQNPYERGPVPTLESITAESGPFAIGSVTVPAGSGQGFNSGTVYYPTDTSKGTFGAIAIMPGFLASQSDIAWYGPRLASHGFVVMTLNTSALWDFPADRSRQQLAALTYLTAQSTVKNRIDPGRLAVMGWSMGGGGSLQSAASTPSLKAAIPLAPWDLSNVSSRITVPTMIFGADGDTVASVDDFARPFYNGLANAPDKSLIVLKGTDHFTFAKPNTTIARYSVSWLKRFVDNDTRYDQFLCPTPNDPNTVVLQITCPL [DP028],< 25
11,MEAIVRRGGTRGQVTGILVAVLAMVVALAGAVLAARPALAQPRDTAPGNPYQRGPDPTVAMIEASAGPFATASTSVPAGHGFNGGTVYYPTDTSLGTWGALAIVPGYSALFANEEAWMGPWLASFGFVVIGVETTTRTDSADARGTELLAALNYLTTQSPVRDRVDPNRLSVLGHSAGGAGAMLAAERQPTLKAAVGLAPGSPVGNLSLAADTVPTMVIGGQNDAVVTPSYLSGLYATMPASTQSDFAQVAGADHVYYTHPNNVEMKLLIPWLKTFLDNDTRYTPFLCPAPPDPSSISLYTPKCPYVPGGSAPGGGNTGALHAVGAAKCLAAPSTGAPGAQVTIGTCGGQAGQIWTHTAAAQLTVTLGGATLCLDASGQGSSPGTKVIVWSCNGQVNQQWNLNADGTVTGAQSGLCLDVTGASTADGAPVELWSCNGGGNQQWHLG [TEP068],< 25
12,NTNVPSQACNLTNANGCDSIAILNLTINQADTLYTNIITCDNYTWDGTTYTNSGIYNNVYTNSNGCDSILLNLITIPGPFSVSNIDESSGIRNGLDYDGATIYYPDNGNYLSSIVIVPGFMNTELTVQNWGPFLASYGIVTMTIGTNALTDSEFQRRDALIDAIISLKDENNRSLSPLFGRLNTSSISVGGFSKGGGGAQLVASLDSSIKAIVALYPFIDNPIVSDFDHNIPTFIISGQLDVIAPPAQHADIHYDLIPNSTKKLKYELSVGTHDALSGPYGGLNQVGERVLSFLGLFLENDSCYCPLLDITPSLSSRSKSAPLTKSLMILPAATDALRAGSKSTSAKLAEAVA [TEP057],< 25
13,AAPVHHAVTRPVAAHHPVTRPVAGHAPPPSTVDQIVVPATADARFGGGTIFAPHGAGQKVLGSVIVTPGFHGRKSDMAVYGTELAAEGFVVFTIDTRERADLPAQRATEMLAAADYLTGRSAVKGEVSPDRVALLGYSMGGGGTLEAAQERPSIKAALTLMPYDYPPAGDPKAVHPAYPELTVPTLIITGQKDATAIPAKFGKPAYDSIPAGTPKQYLQLTGLGHAAGMGKPTATIRAAITAFLERYLDGDTAYAKDICPAPEVGGPISASTSSCPAG [ESM183],< 25
14,STPVHHAAARTAVPHHAPFAVRTTVVPKTAVKAFGGGVIYTPQDTGKPVLGAVVITPGFTDTNADEKATAELVASQGFVAFAIDTLDVYDLPDQRATEMLAAADYLTGTSAVKSEVSANDVALLGYSFGGGGTMQAAQSRPSIKAAVTLMPYDFPPADQPDAQYPAYPKLTVPTLVITGQKDDVAVPADFGKPAYDSIPAGTPKQYLELKGLDHYAGHRAPTPTIRTAVTAFLKRYLDGNSAYAKFICPAPKVGGPITASISSCPKG [ESM164],< 25
15,QTTAPTSASLNATAGPLSIASASVSSLAASGFGGGTIYYPTTSGRFGVVAISPGYTASQSTIAWLGRRMASHGFVVITIDTNTTLDYPESRATQLRAALDHVINRASTTVRNKVDPARRAVAGHSMGGGGSLIAAEADSTLKAAYPMTPWNISENFSRVRVPTMIIGADGDTIAPVISHARPFYGSIPNTTFKAYGELNNASHFAPNTTNTPIGRYGVAWMKRFVDGDTRYSTFLCGAEHNRYNTSLVFDQYRSNCPY [ESM079],< 25
16,CGDRDAGDPAPTESSLTAPLGPEKYRTEVVPRAYVEAFGGGTIYYPAGRPPGERLGAVTIVPGSRGYQSGMAWYGPLLASRGFIVFTIDTLHLKDQPAKRSLELEAALTYLATRSAVASHVDAERLAVMGHSLGGGGTLDLAATRPNLKAAIPLMPYDKAKDFSNVRVPTLVVAAQHDKIAPVGKHAEVFYRSIPASQPKAYLEIAGATHSFPKRRDATLAKYVIAWLKRYVDGDKRYDRFLCPGPQNDPHVARYASDCTPR [DP095],< 25
17,MASVAAQYGPFATAQITVPPGNGFNGGFIYYPTDTSHTYGAVAIVPGYTALFANEEAWMGPRLASFGFVVIGVETNNRNDYDTARGTQLLAALDYLTNSSAVRDRVDRNRLSVIGHSMGGGGALYAATQRPSLKAAIGLAPFKPSGNLASDNVPTMIIGGINDTTVTPSYLDGLYPTLPASTPGAYIQLANADHLYFTRPNDIELRSQIEWLKIFVDNDTRYTQFLCPSIKDTTGIVRSSVKCSTIPSGGSTPPSSPSVPPSSPPSGPQRILGSQSGRCVDVPNATHDNGTRVQLYDCNGQANQQWTYTSSKQLTVYGNVCLDAAGSGNGSAVQIYSCNGQPNQQWNVNANGTITGVQSGRCLDVWGTGNGQQFQLWDCNGQANQRFGLS [ESM074],< 25
18,MAAGGLVAAQAAGAQAAPAQAAAANPYERGPAPTEASIEAARGSYAVSQTTVSSLSVSGFGGGTVYYPTSTSDGTFGAVVISPGYTAYQSSIAWLGPRLASQGFVVFTIDTLTTLDQPDSRGRQLLAALDYLTQSSSVRTRIDSSRLGVMGHSMGGGGTLEAAKSRPSLQAAIPLTGWNLDKTWPEIKTPTLIVGADGDTIAPVATHSEPFYESLPSSLDKAYLELNGATHFTPNSSNTTIAKYSISWLKRFIDNDTRYEQFLCPLPRPSLTIDEYRGNCPHTS [TEP052],< 25
19,DEIGQAPTAANITGNGSFAVTSAAVTGASGFGGGTVYYPTTAGTYPVVAIAPGFTQAWSAIQWLGPRLSSWGFVVVGINTNSSLDFPASRGTQLLAALNWAVASAPAAVTSRADGTRRGVAGYSMGGGGTLEALSQDTTGAVKAGVPMAPWHTDTTWQQVTEPVFILGGQNDSTAPVASHAKPMYNSLGGPKTYVELAGAPHSFPRTDNATTSRALVSWFKRWLNGDARFTPFTCGFTGTAISAYQTTAC [ESM099],< 25
20,TPEAPAARAAENPYERGPDPTESSIEAPRGSYSVSERSVSSLSVRGFGGGTIYYPTSTADGTFGAVAISPGFTARQSSMAWYGERLASQGFVVFTIDTNTTMDQPASRGDQLLAALDYLTDDSAVRSRIDSNRLAVMGHSMGGGGSLEAAKDRPSLKAAIPLTPWNTDKSWPEVRVPTFIVGADGDSIASVRSHAEPFYESLPSSTDRAYMELRNATHFAPNSADTEIAKYSISWLKRFVDEDTRYEQFLCPIPSSDLQIAEFRGNCPH [TEP075],< 25
